Results on one substance are retold here after patent publication US20190381169A1, “PHARMACEUTICAL COMBINATIONS FOR IMMUNOTHERAPY” (Technische Universitat Dresden, priority 2014, published 2019).

Type in all cases: cell-based
The target in assay [1] is T1, p75^NTR (Mus musculus, UniProt Q9Z0W1).
T1 construct: endogenous in cells; host or cells: murine plasmacytoid dendritic cells differentiated in vitro from bone marrow with Flt3-L (p75NTR+/+ wildtype; p75NTR-/- as control)
T1 sequence (Q9Z0W1 32-427): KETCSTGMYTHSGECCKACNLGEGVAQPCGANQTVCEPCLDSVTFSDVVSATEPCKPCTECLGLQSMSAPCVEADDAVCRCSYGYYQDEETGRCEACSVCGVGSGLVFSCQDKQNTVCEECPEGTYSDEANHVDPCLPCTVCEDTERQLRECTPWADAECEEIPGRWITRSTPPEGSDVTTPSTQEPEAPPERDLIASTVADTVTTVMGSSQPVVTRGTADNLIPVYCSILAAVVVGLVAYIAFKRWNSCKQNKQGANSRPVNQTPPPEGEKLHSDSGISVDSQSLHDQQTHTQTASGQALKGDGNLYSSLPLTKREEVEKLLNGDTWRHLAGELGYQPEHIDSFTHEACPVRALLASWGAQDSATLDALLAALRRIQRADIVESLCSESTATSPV
In words: Th1 cytokine secretion in co-culture of murine PDCs and OTII T-cells with ovalbumin peptide (CBA). The conditions noted are these: OTII T-cells with p75^NTR+/+ PDCs and ovalbumin peptide 323-339, NGF 100 ng/ml, compared to p75^NTR−/− PDCs. The method, then:
Murine T-cells were isolated from the OTII mouse strain expressing mouse alpha-chain and beta-chain T-cell receptor specific for chicken ovalbumin 323-339, using the CD+ T-cell isolation kit (Miltenyi Biotec).
Both, murine PDCs and T-cells were cultured overnight with or without the chicken ovalbumin peptide 323-339 in the presence or absence of NGF (100 ng/ml). The concentrations of T-cell secreted Th1-cytokines IL-2 and IFNγ in the supernatant were determined by using the CBA kit (BD Bioscience) following manufacturer's instruction with modification in data analysis using Microsoft Excel. […] In the presence of p75^NTR+/+ PDCs presenting the ovalbumin peptide (OVA) to the T-cells, T-cells secrete the Th1 cytokines IFNγ (FIG. 5A) and IL-2 (FIG. 5B).

For assay [2], the target named is T1, p75^NTR. In words: Expression of MHC and co-stimulatory molecules on murine PDCs.
In assay [3] the target is T1, p75^NTR. The assay can be described thus: Western blotting of TLR signalling proteins in CpG treated murine PDCs. The source says:
To investigate the mechanisms underlying these effects, we analysed PDCs treated with CPG-ODNs Class A (FIG. 3F) or Class B (FIG. 3G) using western blotting.

Where [4] appears, read: p75^NTR+/+ PDCs stimulated with CpG B, presence of NGF.
Where [5] appears, read: p75^NTR+/+ PDCs stimulated with ovalbumin (OVA), NGF added.
Where [6] appears, read: CpG A stimulated p75^NTR+/+ PDCs, NGF added.
The mark [7] stands for this setting: p75^NTR+/+ PDCs co-incubated with CpG B and NGF.

“Also recorded” adds a separate entry of the source.

Take “NGF: Nerve growth factor, best characterized neurotrophin; natural p75^NTR agonist (R&D Systems)”: the “secretion of Th1 cytokines IFNγ and IL-2” value in the assay with p75^NTR [1] is on record as “reduced secretion”. In addition, the “expression of MHC-II” value with p75^NTR [2] (p75^NTR+/+ PDCs stimulated with CpG A, presence of NGF) is “reduced expression; also recorded: decreased expression”. Further, in the assay with p75^NTR [2] (setting [4]), the “expression of MHC I” value is “further increased expression” and the “expression of MHC-II” value is “increased expression; also recorded: further increase”. For the same substance, in the assay with p75^NTR [2] (setting [5]), the “expression of ICOS-L and MHC-II” value is recorded as “further increased; also recorded: increased expression”; the “expression of MHC-I, PD-L1 and Ox40-L” value is given as “altered the expression; also recorded: decreased expression”. Also, the “expression of MHC-I, PD-L1 and Ox40-L on p75^NTR−/− PDCs” value with p75^NTR [2] (p75^NTR−/− PDCs stimulated with ovalbumin, NGF added) is “but not on p75^NTR−/− PDCs”. Besides, in the assay with p75^NTR [3] (setting [6]), the “activation (phosphorylation) of IRF-3, IRF7, IKK and c-Jun” value is “reduced activation”; the “expression of MyD88 and TRAF6” value was “reduced expression”. Besides, in the assay with p75^NTR [3] (p75^NTR+/+ PDCs), the “CpG A-induced phosphorylation of IRF3 and IRF7” value was “attenuated”. In addition, in the assay with p75^NTR [3] (setting [7]), the “activation (phosphorylation) of IRF3, IRF7, IKK and c-Jun” value is “increased”; the “expression of MyD88 and TRAF3” value was “increased expression”. Also, the “levels of CpG-induced phosphorylation of IRF3 and IRF7 in p75^NTR−/− pDCs” value in the assay with p75^NTR [3] (p75^NTR−/− pDCs) is given as “did not alter”.
